From paper PMC10907630

Key:
Test in all cases: EMSA
[1] = tested on: tau 1N4R, P10636-7; conditions: Hill fit, EMSA: 20 nM DNA or nucleosome, 20 mM HEPES pH 7.2, 10 mM NaCl (or 150), 0.5 mM TCEP, 0.1% Tween-20, 5% sucrose, room temperature 20 min, FA: 10 nM DNA, same …
[2] = tested on: tau ΔPRD-DBR (1N4R) del191-211, P10636-7; conditions: EMSA: 20 nM DNA or nucleosome, 20 mM HEPES pH 7.2, 10 mM NaCl (or 150), 0.5 mM TCEP, 0.1% Tween-20, 5% sucrose, room temperature 20 min; FA: 10 nM DNA, same …
Chain of tau ΔPRD-DBR (1N4R) del191-211, P10636-7 (P10636 other isoform, or with tags, fused parts or gaps mutant): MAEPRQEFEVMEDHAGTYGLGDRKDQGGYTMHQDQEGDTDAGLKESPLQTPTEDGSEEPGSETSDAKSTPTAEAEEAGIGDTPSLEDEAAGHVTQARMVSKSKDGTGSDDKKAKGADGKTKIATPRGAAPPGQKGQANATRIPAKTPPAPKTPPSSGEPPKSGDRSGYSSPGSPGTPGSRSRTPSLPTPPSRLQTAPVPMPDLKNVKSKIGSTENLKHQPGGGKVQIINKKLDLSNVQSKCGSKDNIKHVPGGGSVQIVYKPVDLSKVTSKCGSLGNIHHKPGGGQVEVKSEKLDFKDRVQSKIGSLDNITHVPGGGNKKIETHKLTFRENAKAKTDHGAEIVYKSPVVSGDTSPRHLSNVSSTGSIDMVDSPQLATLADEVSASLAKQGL

[3] = tested on: PG-ptau (tau 1N4R phosphorylated by PKA and GSK-3β), P10636-7; conditions: EMSA: 20 nM DNA or nucleosome, 20 mM HEPES pH 7.2, 10 mM NaCl (or 150), 0.5 mM TCEP, 0.1% Tween-20, 5% sucrose, room temperature 20 min, FA: 10 nM DNA, same …
Chain of PG-ptau (tau 1N4R phosphorylated by PKA and GSK-3β), P10636-7 (P10636 other isoform, or with tags, fused parts or gaps): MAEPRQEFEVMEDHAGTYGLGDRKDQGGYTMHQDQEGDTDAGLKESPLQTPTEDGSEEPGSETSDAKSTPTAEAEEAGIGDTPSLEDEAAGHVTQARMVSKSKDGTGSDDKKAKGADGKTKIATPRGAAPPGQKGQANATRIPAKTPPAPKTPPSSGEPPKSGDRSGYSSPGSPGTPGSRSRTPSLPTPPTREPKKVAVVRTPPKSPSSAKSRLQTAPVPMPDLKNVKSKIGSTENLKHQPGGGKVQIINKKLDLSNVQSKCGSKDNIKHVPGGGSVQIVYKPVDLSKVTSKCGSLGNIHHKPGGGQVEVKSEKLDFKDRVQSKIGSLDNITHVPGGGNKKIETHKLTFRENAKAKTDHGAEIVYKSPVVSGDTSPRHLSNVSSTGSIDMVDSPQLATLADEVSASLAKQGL

Chain of tau 1N4R, P10636-7 (P10636 other isoform, or with tags, fused parts or gaps): as above

ACTACGCGGCCGCCCTGGAGAATCCCGGTGCCGAGGCCGCTCAATTGGTCGTAGACAGCTCTAGCACCGCTTAAACGCACGTACGCGCTGTCCCCCGCGTTTTAACCGCCAAGGGGATTACTCCCTAGTCTCCAGGCACGTGTCAGATATATACATCCTGTGCATGTAAGATCCAGT (double strand) [177 bp DNA (601)]
Kd ([1]; 10 mM NaCl): 135 nM
Kd ([1]; 150 mM NaCl): 188 nM
Kd [2]: 410 nM
Kd ([3]; 150 mM NaCl (Fig. S12 legend says 10 mM)): 426 nM
Kd [3]: 241 nM

ACTACGCGGCCGCCCTGGAGAATCCCGGTGCCGAGGCCGCTCAATTGGTCGTAGACAGCTCTAGCACCGCTTAAACGCACGTACGCGCTGTCCCCCGCGTTTTAACCGCCAAGGGGATTACTCCCTAGTCTCCAGGCACGTGTCAGATATATACATCCTGTGCATGTAAGATCCAGT (double strand) [177 bp mononucleosome]
Kd ([1]; 10 mM NaCl): 106 nM
Kd [3]: 166 nM

CTGGAGAATCCCGGTGCCGAGGCCGCTCAATTGGTCGTAGACAGCTCTAGCACCGCTTAAACGCACGTACGCGCTGTCCCCCGCGTTTTAACCGCCAAGGGGATTACTCCCTAGTCTCCAGGCACGTGTCAGATATATACATCCTGT (double strand) [147 bp mononucleosome (linker-free)]
Kd ([1]; 10 mM NaCl): 83.4 nM
